Patent US20240287172A1 (SCIRHOM, published 2024)
Positions count from the first letter of the chain named.

Key:
hiR2-FL-I566E-T7 = target: T1, hiR2-FL-I566E-T7 (human, UniProt Q6PJF5 1-856); assay: FACS on MEF-DKO cells
T1 construct: on MEF-DKO cells; also called hiR2-FL-1566E-T7
T1 sequence: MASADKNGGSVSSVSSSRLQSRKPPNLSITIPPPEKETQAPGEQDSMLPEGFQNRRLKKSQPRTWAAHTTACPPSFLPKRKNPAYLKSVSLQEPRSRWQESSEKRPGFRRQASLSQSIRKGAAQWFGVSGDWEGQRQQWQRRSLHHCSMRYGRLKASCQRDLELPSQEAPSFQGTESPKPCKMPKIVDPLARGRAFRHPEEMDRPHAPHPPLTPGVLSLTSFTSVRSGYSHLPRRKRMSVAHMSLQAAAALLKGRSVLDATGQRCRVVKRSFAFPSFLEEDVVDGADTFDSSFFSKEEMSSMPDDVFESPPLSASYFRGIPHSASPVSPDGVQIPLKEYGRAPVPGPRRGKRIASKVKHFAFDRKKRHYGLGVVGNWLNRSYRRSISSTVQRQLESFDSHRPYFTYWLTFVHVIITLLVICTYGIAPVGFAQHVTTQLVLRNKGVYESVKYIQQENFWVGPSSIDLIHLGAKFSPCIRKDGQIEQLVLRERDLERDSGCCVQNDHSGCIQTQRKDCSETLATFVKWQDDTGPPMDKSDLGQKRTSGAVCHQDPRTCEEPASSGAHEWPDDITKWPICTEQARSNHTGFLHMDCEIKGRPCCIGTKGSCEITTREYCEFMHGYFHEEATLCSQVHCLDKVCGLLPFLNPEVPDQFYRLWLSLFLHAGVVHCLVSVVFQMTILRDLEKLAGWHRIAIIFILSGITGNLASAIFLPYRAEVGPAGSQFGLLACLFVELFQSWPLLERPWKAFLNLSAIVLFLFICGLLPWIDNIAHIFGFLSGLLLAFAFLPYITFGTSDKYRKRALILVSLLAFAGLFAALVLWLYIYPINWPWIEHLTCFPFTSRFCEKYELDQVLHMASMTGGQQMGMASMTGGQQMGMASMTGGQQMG

hiR2-FL-L589P-T7 = target: T2, hiR2-FL-L589P-T7 (human, UniProt Q6PJF5 1-856); assay: FACS on MEF-DKO cells
T2 sequence: T1 sequence with E566I, L589P

miR2-FL-WT-T7 = target: T3, miR2-FL-WT-T7 (mouse, UniProt Q80WQ6 1-827); assay: FACS on MEF-DKO-miR2-FL-WT-T7 cells
T3 construct: on MEF-DKO cells
T3 sequence: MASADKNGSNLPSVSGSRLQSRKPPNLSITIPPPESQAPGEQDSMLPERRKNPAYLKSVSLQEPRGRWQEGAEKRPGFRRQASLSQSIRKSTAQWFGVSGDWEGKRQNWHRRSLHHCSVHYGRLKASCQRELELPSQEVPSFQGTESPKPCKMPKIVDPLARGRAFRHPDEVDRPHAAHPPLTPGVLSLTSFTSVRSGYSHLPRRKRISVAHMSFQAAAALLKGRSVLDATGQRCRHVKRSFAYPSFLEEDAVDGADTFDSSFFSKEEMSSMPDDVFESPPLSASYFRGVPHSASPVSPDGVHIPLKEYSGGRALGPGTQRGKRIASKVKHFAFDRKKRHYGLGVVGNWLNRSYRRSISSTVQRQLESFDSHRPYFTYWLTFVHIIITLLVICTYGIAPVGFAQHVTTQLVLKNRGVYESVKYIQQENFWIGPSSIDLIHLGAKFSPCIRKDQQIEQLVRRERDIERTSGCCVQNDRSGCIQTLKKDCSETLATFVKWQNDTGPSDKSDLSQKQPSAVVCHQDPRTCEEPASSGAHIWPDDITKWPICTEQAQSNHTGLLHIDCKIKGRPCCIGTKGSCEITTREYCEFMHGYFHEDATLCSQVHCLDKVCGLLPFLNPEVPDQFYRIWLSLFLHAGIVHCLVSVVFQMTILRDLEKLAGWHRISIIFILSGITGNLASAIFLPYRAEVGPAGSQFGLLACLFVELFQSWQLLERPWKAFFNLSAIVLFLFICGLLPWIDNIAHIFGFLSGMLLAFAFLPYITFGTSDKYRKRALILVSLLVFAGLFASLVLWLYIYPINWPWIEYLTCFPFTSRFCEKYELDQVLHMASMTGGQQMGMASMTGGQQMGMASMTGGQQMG

B1: antibody 5 (antibody, V domains shown)
VH: QVTLKESGPGILQPSQTLSLTCSFSGFSLSTFGMGVGWIRQPSGKGLEWLAHIWWDDEKYYNSALKSRLTISKATSKNQAFLKIANVDTADTATYYCARISNYGSNYWYFNVWGTGTTVTVSS
VL: QVVLTQSPALMSASPGEKVTMTCSAGSSVSCMYWYQQKPGSSPRVLIYDTSNLASGVPARFTGSGSGTSYSLTISRMEAEDAASYYCQQWNSYPLTFGAGTKLELK
notes: mouse IgG, kappa light chain; also called clone #5; purified antibody 5
- binding result (hiR2-FL-I566E-T7): no binding (tested: 3 µg/ml)

B2: antibody 50 (antibody, V domains shown)
VH: QVQLQQSGAELVRPGASVKVSCKASGYAFSNYLIEWVKQRPGQGLEWIGVINPGSGFTKYNEKFKGKATLTADKSSSTAYMQLSSLTSEDSAVYFCARGLYRAMDYWGQGTSVTVSS
VL: DIQMTQSPASQSASLGESVTITCLASQTIGTWLAWYQQKPGKSPQLLIYAAASLADGVPSRFSGGGSGTKFSFKISSLQAEDFVNYYCQQIYSTPYTFGGGTKLEIK
notes: mouse IgG, kappa light chain; also called clone #50; purified antibody 50
- binding result (hiR2-FL-L589P-T7): no binding (tested: 3 µg/ml)

B3: antibody 3 (antibody, V domains shown)
VH: QVTLKESGPGILQPSQTLSLTCSFSGFSLTTFAMGIGWVRQPSGKGLEWLAHIWWDGEKYNNPVLKSRLTISKDTSKNQVFLRIANVDTPDTATYYCARISSIYYIIDNWGQGTSVTVSS
VL: DIVLTQSPATLSVTPGHSVSLSCRASQSISNNLHWYQKKSHESPRLLIKYVSQSISGIPSRFSGSGSGTDFTLSINSVETEDFGMYFCQQSYNWPLTFGAGTKLELK
notes: mouse IgG, kappa light chain; also called clone #3; purified antibody 3
- binding result (miR2-FL-WT-T7): no binding (tested: 3 µg/ml)
